A short description of the data set: total protein half-life in vivo (active degradation + dilution); higher = more stable protein.
The mark [1] stands for this setting: E. coli NCM3722 delta-clpP delta-lon delta-hslV, growth: N-lim chemostat, doubling time 6 h.
[2] abbreviates: E. coli NCM3722 delta-hslV, growth: N-lim chemostat, doubling time 6 h.
Where [3] appears, read: E. coli NCM3722 delta-lon, growth: N-lim chemostat, doubling time 6 h.
Setting [4] is: wild type E. coli NCM3722, growth: C-lim chemostat, doubling time 3 h.
The mark [5] stands for this setting: wild type E. coli NCM3722, growth: C-lim chemostat, doubling time 12 h.
Where [6] appears, read: wild type E. coli NCM3722, growth: P-lim chemostat, doubling time 6 h.
The mark [7] stands for this setting: wild type E. coli NCM3722, growth: P-lim chemostat, doubling time 12 h.
Setting [8] is: E. coli NCM3722 delta-clpP, growth: N-lim chemostat, doubling time 6 h.
Where [9] appears, read: E. coli NCM3722 delta-smpB, growth: N-lim chemostat, doubling time 6 h.
Where [10] appears, read: wild type E. coli NCM3722, growth: C-lim chemostat, doubling time 6 h.
The mark [11] stands for this setting: wild type E. coli NCM3722, growth: N-lim chemostat, doubling time 6 h.
Where [12] appears, read: wild type E. coli NCM3722, growth: N-lim chemostat, doubling time 12 h.

± gives the standard deviation of the averaged measurements.

“MNTLTFLLSTVIELYTMVLLLRIWMQWAHCDFYNPFSQFVVKVTQPIIGPLRRVIPAMGPIDSASLLVAYILSFIKAIVLFKVVTFLPIIWIAGLLILLKTIGLLIFWVLLVMAIMSWVSQGRSPIEYVLIQLADPLLRPIRRLLPAMGGIDFSPMILVLLLYVINMGVAEVLQATGNMLLPGLWMAL”: the “total protein half-life in vivo” value is, setting by setting: under setting [1], 6.46 h; under setting [2], 5.6 h; under setting [3], 6.12 h; under setting [4], 2.92 h; under setting [5], 10.6 h; under setting [6], 5.07 h. Moreover, the “total protein half-life in vivo” value under setting [7] turned out to be 8.69 h.

For the sequence “MAAQGFLLIATFLLVLMVLARPLGSGLARLINDIPLPGTTGVERVLFRALGVSDREMNWKQYLCAILGLNMLGLAVLFFMLLGQHYLPLNPQQLPGLSWDLALNTAVSFVTNTNWQSYSGETTLSYFSQMAGLTVQNFLSAASGIAVIFALIRAFTRQSMSTLGNAWVDLLRITLWVLVPVALLIALFFIQQGALQNFLPYQAVNTVEGAQQLLPMGPVASQEAIKMLGTNGGGFFNANSSHPFENPTALTNFVQMLAIFLIPTALCFAFGEVMGDRRQGRMLLWAMSVIFVICVGVVMWAEVQGNPHLLALGTDSSINMEGKESRFGVLVSSLFAVVTTAASCGAVIAMHDSFTALGGMVPMWLMQIGEVVFGGVGSGLYGMMLFVLLAVFIAGLMIGRTPEYLGKKIDVREMKLTALAILVTPTLVLMGAALAMMTDAGRSAMLNPGPHGFSEVLYAVSSAANNNGSAFAGLSANSPFWNCLLAFCMFVGRFGVIIPVMAIAGSLVSKKSQAASSGTLPTHGPLFVGLLIGTVLLVGALTFIPALALGPVAEYLS”, under setting [6], the “total protein half-life in vivo” value amounted to 5.85 h.

In the case of “MSVFPESFLWGGALAANQSEGAFREGDKGLTTVDMIPHGEHRMAVKLGLEKRFQLRDDEFYPSHEATDFYHRYKEDIALMAEMGFKVFRTSIAWSRLFPQGDEITPNQQGIAFYRSVFEECKKYGIEPLVTLCHFDVPMHLVTEYGSWRNRKLVEFFSRYARTCFEAFDGLVKYWLTFNEINIMLHSPFSGAGLVFEEGENQDQVKYQAAHHQLVASALATKIAHEVNPQNQVGCMLAGGNFYPYSCKPEDVWAALEKDRENLFFIDVQARGTYPAYSARVFREKGVTINKAPGDDEILKNTVDFVSFSYYASRCASAEMNANNSSAANVVKSLRNPYLQVSDWGWGIDPLGLRITMNMMYDRYQKPLFLVENGLGAKDEFAANGEINDDYRISYLREHIRAMGEAIADGIPLMGYTTWGCIDLVSASTGEMSKRYGFVFVDRDDAGNGTLTRTRKKSFWWYKKVIASNGEDLE”, the “total protein half-life in vivo” value is 3.7 h under setting [1]; over 8 h under setting [8]; 1.88 h under setting [2]; 1.81 ± 0.14 h under setting [9]; 2.47 h under setting [10]; 4.65 ± 0.73 h under setting [5]. For the same sequence, the “total protein half-life in vivo” value under setting [7] was 4.04 ± 0.89 h.

“MSCEELEIVWNNIKAEARTLADCEPMLASFYHATLLKHENLGSALSYMLANKLSSPIMPAIAIREVVEEAYAADPEMIASAACDIQAVRTRDPAVDKYSTPLLYLKGFHALQAYRIGHWLWNQGRRALAIFLQNQVSVTFQVDIHPAAKIGRGIMLDHATGIVVGETAVIENDVSILQSVTLGGTGKSGGDRHPKIREGVMIGAGAKILGNIEVGRGAKIGAGSVVLQPVPPHTTAAGVPARIVGKPDSDKPSMDMDQHFNGINHTFEYGDGI [P0A9D4]”: the “total protein half-life in vivo” value came to 5.17 ± 0.28 h under setting [1]; 4.83 ± 0.052 h under setting [8]; 4.32 ± 0.11 h under setting [2]; 4.85 ± 0.097 h under setting [3]; 4.76 ± 0.16 h under setting [9]; 3.65 ± 0.071 h under setting [4]. Also, the “total protein half-life in vivo” value reads like this: under setting [10], 5.49 ± 0.22 h; under setting [5], 9.82 ± 0.61 h; under setting [11], 5.03 ± 0.5 h; under setting [12], 7.88 ± 0.39 h; under setting [6], 5.83 ± 0.13 h; under setting [7], 11.5 ± 0.77 h.

Regarding “MERVSITERPDWREKAHEYGFNFHTMYGEPYWCEDAYYKLTLAQVEKLEEVTAELHQMCLKVVEKVIASDELMTKFRIPKHTWSFVRQSWLTHQPSLYSRLDLAWDGTGEPKLLENNADTPTSLYEAAFFQWIWLEDQLNAGNLPEGSDQFNSLQEKLIDRFVELREQYGFQLLHLTCCRDTVEDRGTIQYLQDCATEAEIATEFLYIDDIGLGEKGQFTDLQDQVISNLFKLYPWEFMLREMFSTKLEDAGVRWLEPAWKSIISNKALLPLLWEMFPNHPNLLPAYFAEDDHPQMEKYVVKPIFSREGANVSIIENGKTIEAAEGPYGEEGMIVQQFHPLPKFGDSYMLIGSWLVNDQPAGIGIREDRALITQDMSRFYPHIFVE [P0ADT5]”, the “total protein half-life in vivo” value under setting [8] amounted to 4.7 ± 0.6 h; the “total protein half-life in vivo” value under setting [2] is 4.25 ± 0.46 h; the “total protein half-life in vivo” value under setting [3] was 4.93 ± 0.34 h; the “total protein half-life in vivo” value under setting [9] came out at 4.3 ± 0.17 h; the “total protein half-life in vivo” value under setting [4] was 3.13 ± 0.18 h; the “total protein half-life in vivo” value under setting [10] was determined as 5.78 ± 1 h. Also, the “total protein half-life in vivo” value was determined as 9.63 ± 0.61 h under setting [5]; 4.46 ± 0.15 h under setting [11]; 8.2 ± 1 h under setting [12]; 5.65 ± 0.24 h under setting [6]; 11.5 ± 0.2 h under setting [7].

Turning to “MKITVLGCGALGQLWLTALCKQGHEVQGWLRVPQPYCSVNLVETDGSIFNESLTANDPDFLATSDLLLVTLKAWQVSDAVKSLASTLPVTTPILLIHNGMGTIEELQNIQQPLLMGTTTHAARRDGNVIIHVANGITHIGPARQQDGDYSYLADILQTVLPDVAWHNNIRAELWRKLAVNCVINPLTAIWNCPNGELRHHPQEIMQICEEVAAVIEREGHHTSAEDLRDYVMQVIDATAENISSMLQDIRALRHTEIDYINGFLLRRARAHGIAVPENTRLFEMVKRKESEYERIGTGLPRPW [P0A9J4]”, the “total protein half-life in vivo” value runs as follows: under setting [3], 3.4 h; under setting [9], 3.22 ± 0.64 h; under setting [5], 4.51 h; under setting [11], 3.03 h; under setting [6], 5.73 ± 0.2 h.

On to “MVDQAQDTLRPNNRLSDMQATMEQTQAFENRVLERLNAGKTVRSFLITAVELLTEAVNLLVLQVFRKDDYAVKYAVEPLLDGDGPLGDLSVRLKLIYGLGVINRQEYEDAELLMALREELNHDGNEYAFTDDEILGPFGELHCVAALPPPPQFEPADSSLYAMQIQRYQQAVRSTMVLSLTELISKISLKKAFQK [P0AF10]”, for which the “total protein half-life in vivo” value came out at 4.34 ± 0.54 h under setting [1]; 4.01 h under setting [3]; 3.44 h under setting [9]; 2.48 ± 0.33 h under setting [4]; 4.42 ± 0.24 h under setting [10]; 12.5 ± 1.4 h under setting [5]. Moreover, the “total protein half-life in vivo” value was found to be 3.54 h under setting [11], 5.95 ± 0.25 h under setting [12], 4.55 h under setting [6] and 12.2 ± 2 h under setting [7].

For “MNTVCTHCQAINRIPDDRIEDAAKCGRCGHDLFDGEVINATGETLDKLLKDDLPVVIDFWAPWCGPCRNFAPIFEDVAQERSGKVRFVKVNTEAERELSSRFGIRSIPTIMIFKNGQVVDMLNGAVPKAPFDSWLNESL [P0AGG4]”, the “total protein half-life in vivo” value under setting [1] was determined as 5.02 ± 0.31 h; the “total protein half-life in vivo” value under setting [8] came out at 2.89 ± 0.54 h; the “total protein half-life in vivo” value under setting [2] worked out at 2.37 ± 0.6 h; the “total protein half-life in vivo” value under setting [3] was found to be 5.32 ± 0.43 h; the “total protein half-life in vivo” value under setting [9] was 2.48 ± 1.3 h; the “total protein half-life in vivo” value under setting [4] turned out to be 1.6 ± 0.2 h. In addition, the “total protein half-life in vivo” value under setting [10] is 3.09 ± 0.67 h; the “total protein half-life in vivo” value under setting [5] was found to be 5.03 ± 1.5 h; the “total protein half-life in vivo” value under setting [11] was found to be 2.26 ± 0.083 h; the “total protein half-life in vivo” value under setting [12] is 3.44 ± 0.91 h; the “total protein half-life in vivo” value under setting [6] was determined as 2.24 ± 0.53 h; the “total protein half-life in vivo” value under setting [7] was found to be 4.54 ± 0.14 h.

These data come from the supplement of paper PMC11246515.
